Columns and labels:
[1] = target: T1, recombinant human Parkin fragment aa 138-465 (human, UniProt O60260 138-465); experiment: far-Western, overlay or dot blot; 2 µg recombinant Parkin proteins (aa 1-465 and aa 138-465) separated by SDS-PAGE and transferred to immobilon membrane, incubated for 6 h with 80 µg recombinant SLP-2, probed with anti-SLP-2 antibody; details: both partners purified
T1 construct: SUMO cleaved with ULP-1 protease; source: E. coli One Shot BL21(DE3)pLysS, purified (IMAC, nondenaturing)
T1 sequence (looked up): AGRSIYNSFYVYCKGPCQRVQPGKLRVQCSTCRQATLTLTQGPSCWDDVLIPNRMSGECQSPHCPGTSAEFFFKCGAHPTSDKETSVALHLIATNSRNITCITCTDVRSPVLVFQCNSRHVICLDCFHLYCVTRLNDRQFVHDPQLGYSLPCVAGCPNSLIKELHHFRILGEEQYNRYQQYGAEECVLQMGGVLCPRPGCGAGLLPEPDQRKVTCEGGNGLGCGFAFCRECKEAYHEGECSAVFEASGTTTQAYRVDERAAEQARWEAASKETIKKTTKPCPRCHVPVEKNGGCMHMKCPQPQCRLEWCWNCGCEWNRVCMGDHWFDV

[2] = target: T2, recombinant full-length human Parkin protein (aa 1-465) (human, UniProt O60260 1-465); experiment: far-Western, overlay or dot blot; 2 µg recombinant SLP-2 separated by SDS-PAGE and transferred to a membrane, incubated with 60 µg recombinant Parkin, probed with anti-Parkin antibody; details: both partners purified
T2 construct: SUMO cleaved with ULP-1 protease; also called recombinant Parkin; source: E. coli One Shot BL21(DE3)pLysS, purified (IMAC, nondenaturing)

binding result [1]: binds
binding result [2]: binds
B1: recombinant human SLP-2 protein (aa 41-356) (domain or fragment, UniProt Q9UJZ1 41-356, looked up)
chain: VPQQEAWVVERMGRFHRILEPGLNILIPVLDRIRYVQSLKEIVINVPEQSAVTLDNVTLQIDGVLYLRIMDPYKASYGVEDPEYAVTQLAQTTMRSELGKLSLDKVFRERESLNASIVDAINQAADCWGIRCLRYEIKDIHVPPRVKESMQMQVEAERRKRATVLESEGTRESAINVAEGKKQAQILASEAEKAEQINQAAGEASAVLAKAKAKAEAIRILAAALTQHNGDAAASLTVAEQYVSAFSKLAKDSNTILLPSNPGDVTSMVAQAMGVYGALTKAPVPGTPDSLSSGSSRDVQGTDASLDEELDRVKMS
notes: Stomatin-like protein 2, human, aa 41-356; SUMO cleaved with ULP-1 protease; also called recombinant SLP-2; source: E. coli One Shot BL21(DE3)pLysS, purified (IMAC, nondenaturing)
